Laboratory results taken from patent publication US11225644B2, “Cell culture method, cell aggregates, cell aggregation control agent, and medium” (THE UNIVERSITY OF TOKYO, priority 2015, dated 2022).

B1: E-cadherin-Fc: fusion protein of mouse E-cadherin extracellular domain and mutated IgG1-Fc domain (T252M/T254S) (protein)
chain: DWVIPPISCPENEKGEFPKNLVQIKSNRDKETKVFYSITGQGADKPPVGVFIIERETGWLKVTQPLDREAIAKYILYSHAVSSNGEAVEDPMEIVITVTDQNDNRPEFTQPVFEGFVAEGAVPGTSVMKVSATDADDDVNTYNAAIAYTIVSQDPELPHKNMFTVNRDTGVISVLTSGLDRESYPTYTLVVQAADLQGEGLSTTAKAVITVKDINDNAPVFNPSTYQGQVPENEVNARIATLKVTDDDAPNTPAWKAVYTVVNDPDQQFVVVTDPTTNDGILKTAKGLDFEAKQQYILHVRVENEEPFEGSLVPSTATVTVDVVDVNEAPIFMPAERRVEVPEDFGVGQEITSYTAREPDTFMDQKITYRIWRDTANWLEINPETGAIFTRAEMDREDAEHVKNSTYVALIIATDDGSPIATGTGTLLLVLLDVNDNAPIPEPRNMQFCQRNPQPHIITILDPDLPPNTSPFTAELTHGASVNWTIEYNDAAQESLILQPRKDLEIGEYKIHLKLADNQNKDQVTTLDVHVCDCEGTVNNCMKAGIVAAGLQV
modifications: left off: a dimerising Fc or GST
B2: recombinant E-cadherin: recombinant E-cadherin (hRP-0339, manufactured by LD Biopharma) (protein, UniProt P12830 155-882, looked up)
Cadherin-1: DWVIPPISCPENEKGPFPKNLVQIKSNKDKEGKVFYSITGQGADTPPVGVFIIERETGWLKVTEPLDRERIATYTLFSHAVSSNGNAVEDPMEILITVTDQNDNKPEFTQEVFKGSVMEGALPGTSVMEVTATDADDDVNTYNAAIAYTILSQDPELPDKNMFTINRNTGVISVVTTGLDRESFPTYTLVVQAADLQGEGLSTTATAVITVTDTNDNPPIFNPTTYKGQVPENEANVVITTLKVTDADAPNTPAWEAVYTILNDDGGQFVVTTNPVNNDGILKTAKGLDFEAKQQYILHVAVTNVVPFEVSLTTSTATVTVDVLDVNEAPIFVPPEKRVEVSEDFGVGQEITSYTAQEPDTFMEQKITYRIWRDTANWLEINPDTGAISTRAELDREDFEHVKNSTYTALIIATDNGSPVATGTGTLLLILSDVNDNAPIPEPRTIFFCERNPKPQVINIIDADLPPNTSPFTAELTHGASANWTIQYNDPTQESIILKPKMALEVGDYKINLKLMDNQNKDQVTTLEVSVCDCEGAAGVCRKAQPVEAGLQIPAILGILGGILALLILILLLLLFLRRRAVVKEPLLPPEDDTRDNVYYYDEEGGGEEDQDFDLSQLHRGLDARPEVTRNDVAPTLMSVPRYLPRPANPDEIGNFIDENLKAADTDPTAPPYDSLLVFDYEGSGSEAASLSSLNSSESDKDQDYDYLNEWGNRFKKLADMYGGGEDD

Experiments:
Type in all cases: cell-based, human
hiPS cells (TkDN4-M) [1] = test: Observation of cell aggregates in rotation suspension culture in Essential 8 (Example 3); conditions: Day 5 of the culture, Essential 8, E-cadherin-Fc 50 or 100 μg/ml for first 48 hours, 100 rpm
Description: (§1) To a 12-well plate subjected to low-cell-adhesion treatment, 1 mL of Essential 8® was added, and hiPS cells (TkDN4-M, Stem Cell Bank, The University of Tokyo) (2×10^5 cells/ml) provided in advance and, as a substance that inhibits a cell adhesion molecule(s) of the hiPS cells, E-cadherin-Fc (50 μg/ml) were added at the same time, followed by performing rotation culture at a speed of 100 rpm for 5 days. On Day 2 of the culture and thereafter (from 48 hours after the beginning of the culture), medium replacement was carried out every day with a medium to which E-cadherin-Fc was not added.
Aggregates were obtained in the same manner as in […] except that the concentration of E-cadherin-Fc in Example 3-1 was 100 μg/ml.
Morphology of cell aggregates in Examples 3-1 and 3-2, and Comparative Example 3-1 on Day 2 and Day 5 of the culture was observed using a phase-contrast microscope (product name, DM IRB; manufactured by LEICA). From the results shown in FIGS. 6 and 7, it can be seen that the size of the aggregates can be controlled also in cases where Essential 8® is used as the medium. On Day 5 of the culture, in the cases where E-cadherin-Fc was added, the size of the aggregates was larger than that on Day 2 of the culture, and the diameter of the aggregates was controlled at about 500 μm.

hiPS cells (TkDN4-M) [2] = test: Measurement of glucose consumption, Essential 8 culture (Example 3); conditions: Examples 3-1 and 3-2 (50, 100 μg/ml) vs Comparative Example 3-1, Essential 8, FIG. 8
Description: (§2) During the whole culture period, 300 μL of the culture liquid was collected upon replacement of the medium, and the glucose concentration was analyzed using an enzyme-electrode type bioanalyzer (YS12950) to calculate changes in the glucose consumption.
as §1

hiPS cells (TkDN4-M) [3] = test: Observation of cell aggregates after 1 day of rotation culture (Example 2); conditions: 10 μg/ml, FIG. 5; for uniformity of aggregate diameters compared to Comparative Example 2-1: mTeSR1, rotation culture 90 rpm for 1 day
Description: To a 12-well plate subjected to low-cell-adhesion treatment, 1 mL of mTeSR®1 was added, and hiPS cells (TkDN4-M, Stem Cell Bank, The University of Tokyo) ([…] cells/ml) provided in advance and, as a substance that inhibits a cell adhesion molecule(s) of the hiPS cells, recombinant E-cadherin (hRP-0339, manufactured by LD Biopharma) (10 μg/ml) were added at the same time, followed by performing rotation culture at a speed of 90 rpm for 1 day.
Aggregates were obtained in the same manner as in Example 2-1 except that a neutralizing antibody against E-cadherin (E-cadherin antibody MAB3199Z, manufactured by Millipore) ([…]) was used as the substance that inhibits a cell adhesion molecule(s) of the hiPS cells in Example 2-2.
Aggregates were obtained in the same manner as in Example 2-1 except that E-cadherin-Fc (10 μg/ml) was used as the substance that inhibits a cell adhesion molecule(s) of the hiPS cells in Example 2-3.
Morphology of cell aggregates in Examples 2-1 to 2-3 and Comparative Example 2-1 was observed using a phase-contrast microscope (product name. DM IRB; manufactured by LEICA).

hiPS cells (TkDN4-M) [4] = test: Measurement of number of cells, Essential 8 culture (Example 3); conditions: Examples 3-1 and 3-2 (50, 100 μg/ml) vs Comparative Example 3-1, Essential 8, after 5 days, FIG. 9
Description: (§3) After completion of the culture, the cells were dispersed into single cells using TrypLE® select, and the number of live cells was counted using trypan blue (manufactured by Life Technologies) and an eosinophil counter (manufactured by Tatai).
as §1

hiPS cells (TkDN4-M) [5] = test: Measurement of glucose consumption, mTeSR1 culture (Example 1); conditions: Day 5 of the culture
Description: (§4) […] The sizes of the aggregates 48 hours after the E-cadherin-Fc treatment were within the range of 300 to 700 μm. Subsequently, medium replacement was carried out, and culture was carried out for three days under the same conditions as described above except that E-cadherin-Fc was not added, to obtain aggregates. The sizes of the aggregates were within the range of 500 to 1000 μm.
as §2

hiPS cells (TkDN4-M) [6] = test: Measurement of live cell number after culture, mTeSR1 (Example 1); conditions: Day 5 of the culture
Description: as §4, §3

hiPS cells (TkDN4-M) [7] = test: Diameters of cell aggregates in rotation suspension culture in mTeSR1 (Example 1)
Description: As pluripotent stem cells, hiPS cells (TkDN4-M, Stem Cell Bank, The University of Tokyo) were used. These cells were plated on the above culture plate at a density of 100,000 to 400,000 cells/well, and cultured for four days. The culture was carried out using, as a culture medium, 2 mL/well of mTeSR®1 (manufactured by StemCell Technologies). During the culture, medium replacement was carried out every day except for the day after the plating.
For detachment and collection of cells, TrypLE® select (manufactured by Life Technologies), which is a trypsin-like enzyme, was used. After removal of the culture liquid, TrypLE® select was added to the wells at 1 mL/well, and the plate was incubated at 37° C. for 2 to 5 minutes. Thereafter, TrypLE® select was removed, and mTeSR®1 supplemented with 10 μM Y-27632, which is a ROCK inhibitor, was added to the wells at 2 mL/well, followed by pipetting using a 1000-μL micropipette to detach the cells. The collected cell suspension was passed through a 40-μm cell strainer (BD) to collect the cells as single cells and/or microaggregates, to thereby obtain cells to be applied to suspension culture.
In the following Examples and Comparative Examples, morphology and sizes of cell aggregates during the culture period were observed and measured using a phase-contrast microscope (product name, DM IRB; manufactured by LEICA). […]

| Molecule | diameter of the aggregates (hiPS cells (TkDN4-M) [1]) | glucose consumption (hiPS cells (TkDN4-M) [2]) | uniformity of aggregate diameters compared to Comparative Example 2-1 (hiPS cells (TkDN4-M) [3]) | aggregates compared to recombinant E-cadherin or neutralizing antibody against E-cadherin (hiPS cells (TkDN4-M) [3]; rotation culture for 1 day) | number of cells (hiPS cells (TkDN4-M) [4]) | glucose consumption compared to Comparative Example 1-1 (hiPS cells (TkDN4-M) [5]; Example 1-1, 5 μg/ml) | glucose consumption compared to Comparative Example 1-1 (hiPS cells (TkDN4-M) [5]; Example 1-2, 10 μg/ml) [times] | glucose consumption compared to Comparative Example 1-1 (hiPS cells (TkDN4-M) [5]; Example 1-3, 20 μg/ml) [times] | glucose consumption compared to Comparative Example 1-1 (hiPS cells (TkDN4-M) [5]; Example 1-4, 50 μg/ml) [times] | glucose consumption compared to Comparative Example 1-1 (hiPS cells (TkDN4-M) [5]; Example 1-5, 100 μg/ml) [times] | number of cells compared to Comparative Example 1-1 (hiPS cells (TkDN4-M) [6]; Example 1-2, 10 μg/ml) | number of cells compared to Comparative Example 1-1 (hiPS cells (TkDN4-M) [6]; Example 1-3, 20 μg/ml) | number of cells compared to Comparative Example 1-1 (hiPS cells (TkDN4-M) [6]; Example 1-4, 50 μg/ml) | number of cells compared to Comparative Example 1-1 (hiPS cells (TkDN4-M) [6]; Example 1-5, 100 μg/ml) | morphology of cell aggregates compared to Comparative Example 1-1 (hiPS cells (TkDN4-M) [7]; 5, 10, 20, 50 and 100 μg/ml, Day 2 of the culture, FIG. 2) | suppression of excessive aggregation and formation of uniform aggregates (hiPS cells (TkDN4-M) [7]; concentration within 10 to 50 μg/ml, Day 2, simple rotation culture) |
| --- | --- | --- | --- | --- | --- | --- | --- | --- | --- | --- | --- | --- | --- | --- | --- | --- |
| B1 | about 500 μm | excellent effect | more uniformly controlled diameters | larger aggregates having more uniform shapes | excellent effect | about twice | 2 | 2.5 | 2.5 | 2 | about 1.8 times | about 2.5 times | about 3 times | about 2.3 times | better-controlled sizes | effective |
| B2 |  |  | more uniformly controlled diameters |  |  |  |  |  |  |  |  |  |  |  |  |  |
